Measurements from patent publication US20100297623A1 (COUNCIL OF THE QUEENSLAND INSTITUTE OF MEDICAL RESEARCH, published 2010).

Biological target: the molecule itself
Assay: gel filtration (self-association)

B1: human ssDNA binding protein 1 (hSSB1) (other)
chain: MTTETFVKDIKPGLKNLNLIFIVLETGRVTKTKDGHEVRTCKVADKTGSINISVWDDVGNLIQPGDIIRLTKGYASVFKGCLTLYTGRGGDLQKIGEFCMVYSEVPNFSEPNPEYSTQQAPNKAVQNDSNPSASQPTTGPSAASPASENQNGNGLSAPPGPGGGPHPPHTPSHPPSTRITRSQPNHTPAGPPGPSSNPVSNGKETRRSSKR
notes: also called human SSB1
- binding result: binds
